# Key:
# human ENO1 protein [1] = biological target: T1, human ENO1 protein (human, UniProt P06733 1-434); assay: ENO1 binding ELISA
# T1 construct: also called ENOl; alpha-enolase
# human ENO1 protein [2] = biological target: T1, human ENO1 protein; assay: SPR, BIAcore 2000, ENO1 injected, 25 degree C, 1:1 Langmuir
# T1 sequence (P06733 whole entry): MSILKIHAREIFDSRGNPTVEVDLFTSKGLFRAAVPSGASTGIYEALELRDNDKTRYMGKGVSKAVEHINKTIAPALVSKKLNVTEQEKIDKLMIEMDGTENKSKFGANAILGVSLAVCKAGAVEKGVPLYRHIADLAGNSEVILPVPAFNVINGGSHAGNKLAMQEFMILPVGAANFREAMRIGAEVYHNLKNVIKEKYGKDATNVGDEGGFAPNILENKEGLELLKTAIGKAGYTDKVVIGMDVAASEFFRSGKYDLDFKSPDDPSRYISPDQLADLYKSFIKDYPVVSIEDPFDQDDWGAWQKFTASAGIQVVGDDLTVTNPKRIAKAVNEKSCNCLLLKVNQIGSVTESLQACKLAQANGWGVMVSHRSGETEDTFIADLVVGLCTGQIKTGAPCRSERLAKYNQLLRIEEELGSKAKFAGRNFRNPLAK
Kd (human ENO1 protein [1]),Kd (human ENO1 protein [2]),Binder
0.0365 nM,0.219 nM,"hum EN10 mAb IMGT (antibody, IgG1, V domains shown, also called humanized EN10 mAb IMGT; Hum EN10 IMGT) VH: QVQLVQSGAEVKKPGASVKVSCKASGYTFTSCVMNWVRQAPGQGLEWMGYINPYNDGTKYNEKFKGRVTMTTDTSTSTAYMELRSLRSDDTAVYYCAREGFYYGNFDNWGQGTLVTVSS VL: DIQMTQSPSSLSASVGDRVTITCRASENIYSYLTWYQQKPGKAPKLLIYNAKTLPEGVPSRFSGSGSGTDFTLTISSLQPEDFATYYCQHHYGTPYTFGQGTKLEIKR"
–,0.5 nM,"hum EN10 mAb 4D5 (antibody, IgG1, V domains shown, also called humanized EN10 mAb 4D5; hum ENO10mAb 4D5) VH: EVQLVESGGGLVQPGGSLRLSCAASGYTFTSCVMNWVRQAPGKGLEWVAYINPYNDGTKYNEKFKGRFTISRDDSKNTLYLQMNSLRAEDTAVYYCAREGFYYGNFDNWGQGTLVTVSS VL: DIQMTQSPSSLSASVGDRVTITCRASENIYSYLTWYQQKPGKAPKLLIYNAKTLPEGVPSRFSGSGSGTDFTLTISSLQPEDFATYYCQHHYGTPYTFGQGTKLEIKR"
